T1: E-selectin expressed on CHO cells (CHO:E-selectin) (UniProt P16581 22-610, limits assumed)
T1 construct: whole, on cells; also called E-selectin expressing CHO cells; CHO cells which express E-selectin
T1 sequence (looked up): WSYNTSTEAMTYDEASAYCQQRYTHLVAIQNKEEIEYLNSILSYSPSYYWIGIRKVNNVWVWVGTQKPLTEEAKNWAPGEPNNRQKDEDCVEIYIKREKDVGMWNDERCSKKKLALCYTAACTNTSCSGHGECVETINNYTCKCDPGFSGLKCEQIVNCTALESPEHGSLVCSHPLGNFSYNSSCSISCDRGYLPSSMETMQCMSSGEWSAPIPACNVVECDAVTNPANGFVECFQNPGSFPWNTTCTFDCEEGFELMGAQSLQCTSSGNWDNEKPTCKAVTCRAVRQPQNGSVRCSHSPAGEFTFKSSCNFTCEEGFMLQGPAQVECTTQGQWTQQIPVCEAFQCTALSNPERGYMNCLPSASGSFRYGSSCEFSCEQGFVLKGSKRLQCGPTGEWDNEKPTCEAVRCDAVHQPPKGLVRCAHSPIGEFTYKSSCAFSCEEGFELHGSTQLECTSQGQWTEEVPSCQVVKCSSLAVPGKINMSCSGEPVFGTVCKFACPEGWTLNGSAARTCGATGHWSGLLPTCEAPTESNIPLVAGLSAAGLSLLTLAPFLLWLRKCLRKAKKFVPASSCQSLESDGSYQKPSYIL

T2: LEC-γ1, chimeric form of P-selectin conjugated to the Fc portion of a human IgGγ1 (human, UniProt P16109 42-771)
T2 construct: extracellular domain; Built by known methods (Aruffo et al. 1991), made in CHO DUKX cells; also called P-selectin/IgG chimera; P-selectin/Fc chimera; not shown: Fc portion of a human IgGγ1
T2 sequence (looked up): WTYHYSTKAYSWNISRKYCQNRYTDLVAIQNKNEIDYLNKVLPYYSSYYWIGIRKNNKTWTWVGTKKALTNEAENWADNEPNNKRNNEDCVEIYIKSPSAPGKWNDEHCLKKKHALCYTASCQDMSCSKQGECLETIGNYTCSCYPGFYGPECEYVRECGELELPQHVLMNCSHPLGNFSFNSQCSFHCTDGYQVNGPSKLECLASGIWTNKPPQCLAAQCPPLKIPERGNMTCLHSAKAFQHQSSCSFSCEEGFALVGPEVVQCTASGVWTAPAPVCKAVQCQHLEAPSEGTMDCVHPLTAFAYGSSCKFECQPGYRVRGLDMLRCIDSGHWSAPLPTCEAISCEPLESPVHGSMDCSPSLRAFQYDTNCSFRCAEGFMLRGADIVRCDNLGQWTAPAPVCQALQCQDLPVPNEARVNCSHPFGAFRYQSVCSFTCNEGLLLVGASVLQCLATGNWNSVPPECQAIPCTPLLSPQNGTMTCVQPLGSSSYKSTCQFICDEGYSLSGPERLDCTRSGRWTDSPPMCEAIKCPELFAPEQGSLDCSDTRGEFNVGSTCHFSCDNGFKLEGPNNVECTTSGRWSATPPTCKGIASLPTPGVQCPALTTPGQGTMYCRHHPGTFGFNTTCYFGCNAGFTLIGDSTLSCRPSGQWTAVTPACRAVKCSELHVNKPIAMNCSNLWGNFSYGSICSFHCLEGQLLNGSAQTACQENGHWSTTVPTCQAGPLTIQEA

T3: chimeric protein comprising the extracellular domain of human E-selectin and the Fc portion of human IgG1 … (human, UniProt P16581 22-556)
T3 construct: extracellular domain; Built analogously to LEC-γ1; also called soluble E-selectin chimera; immobilized E-selectin; not shown: Fc portion of human IgG1
T3 sequence (looked up): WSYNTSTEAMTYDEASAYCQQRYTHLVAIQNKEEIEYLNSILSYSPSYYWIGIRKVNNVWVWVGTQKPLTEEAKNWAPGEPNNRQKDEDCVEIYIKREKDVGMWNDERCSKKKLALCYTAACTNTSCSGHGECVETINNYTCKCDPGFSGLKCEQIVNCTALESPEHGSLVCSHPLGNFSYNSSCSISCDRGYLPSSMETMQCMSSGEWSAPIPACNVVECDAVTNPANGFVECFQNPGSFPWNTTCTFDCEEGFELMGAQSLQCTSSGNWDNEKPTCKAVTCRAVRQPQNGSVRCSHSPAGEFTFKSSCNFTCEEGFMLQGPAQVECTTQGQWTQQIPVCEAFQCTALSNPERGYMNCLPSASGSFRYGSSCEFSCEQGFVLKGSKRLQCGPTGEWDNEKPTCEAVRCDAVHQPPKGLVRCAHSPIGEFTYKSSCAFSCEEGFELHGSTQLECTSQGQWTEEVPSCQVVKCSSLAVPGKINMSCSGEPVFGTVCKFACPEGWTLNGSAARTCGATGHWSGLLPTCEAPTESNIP

T4: P-selectin expressed on the surface of CHO cells (CHO:P-selectin cell line) (UniProt P16109 42-830, limits assumed)
T4 construct: whole, on cells; also called P-selectin expressing CHO cells
T4 sequence (looked up): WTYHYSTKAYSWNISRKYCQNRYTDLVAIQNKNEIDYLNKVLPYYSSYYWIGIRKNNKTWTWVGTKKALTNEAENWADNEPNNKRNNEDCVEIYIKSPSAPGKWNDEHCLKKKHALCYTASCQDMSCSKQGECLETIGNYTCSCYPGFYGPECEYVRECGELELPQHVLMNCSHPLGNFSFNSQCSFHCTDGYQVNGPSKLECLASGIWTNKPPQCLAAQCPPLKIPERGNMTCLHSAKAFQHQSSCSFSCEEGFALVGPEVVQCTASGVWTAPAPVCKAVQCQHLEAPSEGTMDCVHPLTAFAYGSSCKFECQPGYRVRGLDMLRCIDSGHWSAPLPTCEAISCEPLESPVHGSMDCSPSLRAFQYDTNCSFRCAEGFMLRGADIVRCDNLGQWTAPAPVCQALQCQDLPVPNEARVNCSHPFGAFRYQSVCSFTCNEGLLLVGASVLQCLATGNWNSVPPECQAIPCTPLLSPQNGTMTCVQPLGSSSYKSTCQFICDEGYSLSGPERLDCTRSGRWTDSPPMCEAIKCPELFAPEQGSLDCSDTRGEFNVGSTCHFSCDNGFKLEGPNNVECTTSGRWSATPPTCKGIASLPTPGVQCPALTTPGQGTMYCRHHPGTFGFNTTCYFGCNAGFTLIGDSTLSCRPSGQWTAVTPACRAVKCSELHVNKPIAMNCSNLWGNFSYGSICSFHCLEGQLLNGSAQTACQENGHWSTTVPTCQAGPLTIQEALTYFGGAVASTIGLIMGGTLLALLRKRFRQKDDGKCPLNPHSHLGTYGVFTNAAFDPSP


What was measured:
[1] = target: T1, E-selectin expressed on CHO cells …; assay: plate coated with chimera; adhesion of 3H-labelled CHO:E-selectin cells (FIG. 15)
Protocol: Quantitative adhesion of CHO:P-selectin, CHO:E-selectin and CHO:L-selectin expressing cells was performed as described in Example 4(c), with the following modifications: COS cell and antibodies were omitted. Instead, 48-well microtiter plates (Costar) were coated for 16 hours at 4° C. with varying quantities of protein A-purified soluble PSGL-1/Fc chimeras. The unbound material was removed and the coated wells were treated with Hank's buffered saline (HBS) with 1 mg/ml BSA and 2 mM CaCl_2 for 1 hour at 4° C. Tritium labeled CHO selectin expressing cells were added and binding quantitated as described in Example 4(c).

[2] = target: T2, LEC-γ1, chimeric form of P-selectin …; assay: affinity precipitation from 35S-labelled COS membrane lysates
Protocol: (§1) The labeled cells were washed, incubated with EGTA to loosen them from the dish surface, scraped from the dish, pelleted, and suspended in cold 10 mM PIPES buffer, pH 7.5, containing 100 mM KCl, 3 mM NaCl, 3.5 mM MgCl_2, and protease inhibitors (see above). Membrane extraction then was carried out by sonication, low speed centrifugation, high speed centrifugation, and solubilization in membrane lysis buffer as above, for labeled myeloid cells.
(§2) Affinity Precipitations. Membrane extracts were diluted 1:4 or 1:5 with cell lysis buffer or with TBSC buffer (20 mM TrisHCl, 150 mM NaCl, 2 mM CaCl_2, pH 7.5) supplemented with 5 mg/ml bovine serum albumin (approximately 99%, Sigma). Extracts thus diluted to 0.2-0.25% Triton X-100 were incubated with human IgG_1-Protein A Sepharose with end-over-end mixing at 4° C. overnight. […] The resins were washed 5 or more times in buffer containing 0.1-0.5% Triton X-100 until the radioactivity of the wash supernatants was reduced to background level. […]
(§3) COS cells were cotransfected with cDNAs encoding either PSGL-1 or CD43 and either Fuc-TIII or Fuc-TVII. […] The precipitated products were evaluated by SDS-PAGE/autoradiography following their release by EDTA/EGTA (for selectin mediated binding) or by boiling in SDS (for immunoprecipitations).

[3] = target: T3, chimeric protein comprising the …; assay: affinity precipitation from 35S-labelled COS membrane lysates (FIG. 29A)
Protocol: as §1, §2, §3

[4] = target: T4, P-selectin expressed on the surface of …; assay: conditioned medium coated on plastic dishes; adhesion of CHO:P-selectin cells
Protocol: COS cells were co-transfected with the pED.sPSL.T7 plasmid of Example 5(C), the pEA.3/4FT cDNA of Example 2, and a plasmid containing the PACE cDNA as set forth in SEQ ID NO:5. A parallel control co-transfection was done using only the pED.sPSL.T7 plasmid and the pEA.3/4FT plasmid. After 45 hours, conditioned medium from these transfected COS cells was coated onto plastic dishes and binding to CHO:P-selectin cells (Example 4) was determined.

Row | Binder | binding result [1] | binding result [2] | binding result [3] | fold increase in bound CHO:P-selectin cells against P-selectin ligand not co-expressed with PACE [4] [fold]
1 | 148.Fc, P-selectin ligand-IgG chimera with amino acids 42-189 of SEQ ID NO:2 (Fc fusion, tyrosine residues of the anionic region (46, 48, 51 of SEQ ID NO:2) are the major site of sulfation; glycosylated, co-expressed with 3/4FT, also called pED.148.Fc product; pED.149.Fc; not shown: NotI junction/linker of pED.Fc; Fc region of a human IgG1 from pED.PSL.Fc) QATEYEYLDYDFLPETEPPEMLRNSTDTTPLTGPGTPESTTVEPAARRSTGLDAGGAVTELTTELANMGNLSTDSAAMEIQTTQPAATEAQTTPLAATEAQTTRLTATEAQTTPLAATEAQTTPPAATEAQTTQPTGLEAQTTAPAAM | binds |  |  | 
2 | recombinant CD43 (pFCD43) from COS cells co-transfected with Fuc-TIII (other, UniProt P16150 20-400, looked up, co-expressed with Fuc-TIII, Membrane detergent extract; also called recombinant leukosialin) STTAVQTPTSGEPLVSTSEPLSSKMYTTSITSDPKADSTGDQTSALPPSTSINEGSPLWTSIGASTGSPLPEPTTYQEVSIKMSSVPQETPHATSHPAVPITANSLGSHTVTGGTITTNSPETSSRTSGAPVTTAASSLETSRGTSGPPLTMATVSLETSKGTSGPPVTMATDSLETSTGTTGPPVTMTTGSLEPSSGASGPQVSSVKLSTMMSPTTSTNASTVPFRNPDENSRGMLPVAVLVALLAVIVLVALLLLWRRRQKRRTGALVLSRGGKRNGVVDAWAGPAQVPEEGAVTVTVGGSGGDKGSGFPDGEGSSRRPTLTTFFGRRKSRQGSLAMEELKSGSGPSLKGEEEPLVASEDGAVDAPAPDEPEGGDGAAP |  | no binding | no binding | 
3 | sPSL.T7 co-expressed with 3/4FT and PACE (PACE-cleaved soluble P-selectin ligand) (ligand, not shown: large carriers, glycosylated; co-expressed with 3/4FT, also called PACE-cleaved P-selectin ligand; CP/PSL-T7 (R4.1) product) QATEYEYLDYDFLPETEPPEMLRNSTDTTPLTGPGTPESTTVEPAARRSTGLDAGGAVTELTTELANMGNLSTDSAAMEIQTTQPAATEAQTTPLAATEAQTTRLTATEAQTTPLAATEAQTTPPAATEAQTTQPTGLEAQTTAPAAMEAQTTAPAAMEAQTTPPAAMEAQTTQTTAMEAQTTAPEATEAQTTQPTATEAQTTPLAAMEALSTEPSATEALSMEPTTKRGLFIPFSVSSVTHKGIPMAASNLSV |  |  |  | ~2

Other lines, results leading:

Row | binding result [1] | binding result [2] | binding result [3] | fold increase in bound CHO:P-selectin cells against P-selectin ligand not co-expressed with PACE [4] [fold] | Binder
4 | binds |  |  |  | FFFE.148.Fc (Fc fusion, glycosylated, co-expressed with 3/4FT, also called pED.FFFE.148.Fc product; not shown: NotI junction/linker of pED.Fc; Fc region of a human IgG1) QATEFEFLDFEFLPETEPPEMLRNSTDTTPLTGPGTPESTTVEPAARRSTGLDAGGAVTELTTELANMGNLSTDSAAMEIQTTQPAATEAQTTPLAATEAQTTRLTATEAQTTPLAATEAQTTPPAATEAQTTQPTGLEAQTTAPAAM
5 |  | no binding | no binding |  | recombinant CD43 (pFCD43) from COS cells co-transfected with Fuc-TVII (other, UniProt P16150 20-400, looked up, co-expressed with Fuc-TVII, Membrane detergent extract; also called recombinant leukosialin) STTAVQTPTSGEPLVSTSEPLSSKMYTTSITSDPKADSTGDQTSALPPSTSINEGSPLWTSIGASTGSPLPEPTTYQEVSIKMSSVPQETPHATSHPAVPITANSLGSHTVTGGTITTNSPETSSRTSGAPVTTAASSLETSRGTSGPPLTMATVSLETSKGTSGPPVTMATDSLETSTGTTGPPVTMTTGSLEPSSGASGPQVSSVKLSTMMSPTTSTNASTVPFRNPDENSRGMLPVAVLVALLAVIVLVALLLLWRRRQKRRTGALVLSRGGKRNGVVDAWAGPAQVPEEGAVTVTVGGSGGDKGSGFPDGEGSSRRPTLTTFFGRRKSRQGSLAMEELKSGSGPSLKGEEEPLVASEDGAVDAPAPDEPEGGDGAAP
